According to the nanobody polyreactivity screen of Harvey et al. (2022):

assay: yeast display, Sf9 membrane polyspecificity reagent, FACS + sequencing; frameworks hold sequencing errors
How it was run: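 Sorting gates, low and high (top ~1%), were placed on anti-HA fluorescence to track expression and on streptavidin fluorescence to track reagent binding. A clone's polyreactivity label is taken from the gate it came out of. The reagent was 10% biotinylated, detergent-solubilized Sf9 membrane, applied for 1 hour at 4 °C to galactose-induced yeast display cells.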

Row | Sequence | polyreactivity (PSR sort gate)
1 | QVQLVESGGGLVQAGGSLRLSCAASGITFGPNAMGWYRQAPGKERELVAAISWRGGSTYYADSVKGRFTISRDNAKNTVYLQMNSLKPEDTAVYYCAKVQIPASYIRYDYWGQGTQVTLSS | low polyreactivity
2 | QVQLVESGGGLVQAGGSLRLSCAASGRTFSHYAMGWYRQAPGKERELVAAISGSGGTTYYADSVKGRFTISRDNAKNTVYLQMNSLKPEDTAVYYCNTRGRYLMDYWGQGTQVTVSS | high polyreactivity
3 | QVQLVESGGGLVQAGGSLRLSCAASGRTFGHNAMGRYRQAPGKEREFVAAITRRGGSTYYADSVKGRFTISRDNAKNTVYLQMNSLKPEDTAVYYCATRDYVNGPGIFNYWGQGTQVTVSS | low polyreactivity
4 | QVQLVESGGGLVQAGGSLRLSCAASGRIFGYYAMGWYRQAPGKERELVAASTSSDASTYYADSVKGRFTISRDNAKNTDYLQMNSLKPEDTAVYYCNADYPTWSYYLSGYYGYWGQGTQVTVSS | low polyreactivity
5 | QVQLVESGGGLVQAGGSLRLSCAASGNTFCQYAMGWYRQAPGKERELVAAITRSTGSTYYADSVNGRFTISRDNAKNTVYLQMISLKPEDTAVYYCAADFYRHYFRVDSWGQGTQVTVSS | low polyreactivity
6 | QVQLVESGGGLVQAGGSLRLSCAASGSTFGFYAMGWYTHAPGKERELVAGITRVGSTNYADSVKGRFTISRDNAKNTVYLQMNSLKPEVTAVYYCNRRYTPYTWPYGYWGQGTQVTVSS | high polyreactivity
7 | QVQLVESGGGLVQAGGSLRLSCAASASTFVSNAMGWYRQAPGKERELVAAISKSGGSTYYADSVKGRFTISRDNAKNTVYLEMNSLKPEDTAVYYCSKYTAISFYGQYDYWGQGTQVTVSS | high polyreactivity
8 | QVQLVESGGGLVQAGGSLRLSCAASGFTLWGYAMGWYRQAPGKERELVATISWSGGGTNYADSVKGRFTISRDNAKNTVYLQMNSLKPEDTAVYYCAAGQGSRNQYYYWGQGTQVTVSS | high polyreactivity
9 | QVQLEESGGGLVQAGGSLRLSCAASGYTFYYYAMGWYRQAPGKERELVAAISRSGGSTYYADSVKGRFTISRDNAKNTVSLQMNSLKQEDTAVYYCAARRLVGAERPGYDYWGQGTQVTVSS | high polyreactivity
10 | QGQLVESAGGLGQAGGSLRLSCAASGRTLGRYVMGWYRQGPGQVRELVAAISARTGSTYYADSVKGRFTISRDNAKNTVYLQMNSLKPEDTAVYYCATKFSSYDTRVSYDYWGQGTQVTVSS | low polyreactivity
11 | QVQLVESGGGIVQAGGSLRLSCAASGLTFGFNAKGWYTQAPGQERELVATIDLNGGSTTYADSVKGRFTLSRDNAKNTVYLQMNSLKPEDTAVYYCAAQTGFVSHFFSHYDYGGQGTQVTVSS | low polyreactivity
12 | QVQLVESGGGLVLAGGTLRISCAASGSIFYRNTMGWYRLAPVKERELVAAITRGGGRTYYADSVKARFTISRDTAKNTVFLQMNSLKPEDSAVYYCAVQAFSHTSSRMDYWGQGSQVTVSS | high polyreactivity
13 | QVQLVESGGGLVQAGGSLRLSCAASGRIFGSYAMGWYRQAPGKERELVAAISRSGVSTYYADSVKGRFTISRDNAKNTVYLQMNSLKPEDTAVYYCAAYYRYASDYWGQGTQVTVSS | low polyreactivity
14 | QVQLVESGGGLVQAGGSLRLSCAASGSIFDVYAMGWYRQAPGQERELVAAISRGDSTNYADSVKGRFTISRDNAKNTVYLQMNSLKPEDTAVYYCAADCYYWGSGWRYDSWGQGTQVTVSS | low polyreactivity
15 | QVQLVESGGGLVQAGGSLRLSCAASGRTFVPNAMGWYRQAPGKERELVAAISWSGDSTYYADSVKGRFTISRDNAKNTVYLQMNSLKPEDTAVYYCAADPFFGVSIGGLKYHFDYWGQGTQVTVSS | low polyreactivity
16 | QVQLVESGGGLVQAGGSLRLSCAASGRTFFYNGMVWYIQAPGKQRELVAAISGSGSRTYYADSVKGRFTISRDNAKNTVYLQMNSLKPEDTAVYYCAATRVISHYRFDYWGQGTEVTVSS | high polyreactivity
17 | QDQLVESGGGLVQAGGSLRLICAASGSIFTSNAMGWYRQAAGKERELVAAITSSGGSTYYADSVKGRFTISRDNAKNTVYLHMNSLKPEYTAVYYCAAAKFDLSFWLYYWGQGTQVTVSS | low polyreactivity
18 | QVQLVESGGGLVQAGGSLRLSCAASGRTFRYNTMGWYRQAPGKERELVAAITKGAASTYYADSVKGRFTISRDNAKNTVYLQMNSLKPEDTAVYYCNAVYSRIVTQKYWGQGTQVTVSS | high polyreactivity
19 | QVQLVESGGGLVQAGGSLRLSCAASGRIFSTNARGWYRQAPGKQRELVAVITGIGGITYYADSVKGRFTISSDNAKNTVYLKMNSLKPEDTAVYYCGADPISEFYWGVKDRYDYWGQGTQVTVSS | low polyreactivity
20 | QVQLVESGGGLVQAGGSLRLSCAASGSTFYRYAMGWYRQAPGKERELVATIRSSGDSTNYADSVKGRFTISRDNAKNTVYLQMNSLKPEDTAVYYCAKYGKYTWRQGGYWGQGTQVTVSS | high polyreactivity
21 | QVQLVESGGGLVQAGGSLRLSCAASGSIFVDYVMVWYRQAPGKERELVAAISGNGGRTYYADSVKGRFTISRDNAKNTVYLQMNSLKPEDTAVYYCAKVRSVTIGRDYWGQGTQVTVSS | high polyreactivity
22 | QVQLVESVGGLVQAGGSLRLSCAASGRTFYFYAMGWYRQAPGKERELVASITSSGGNTYYADSVKGRFTISRDNAKNTVYLQMNSLKPEDTAVYYCAARWFPWLQWKRYVYWGQGTQVTVSS | low polyreactivity
23 | QVQLVESGGGLVQAGGSLRISCAASGRIFGGYAMGWYRQAPGKERELVAAITSGARTKYADSVKGRFTISRDNAKNTVYLQMNSLKPEDTAVYYCAADGFYDGDYWGQGTQVTVSS | high polyreactivity
24 | QVQLVESGGGLVQAGGSLRLSCAASGSIFLRNAMGWYRQAPGKERELVAAISWGGRTYYADSVKGRFTISRDNAKNTVYLQLNSLKPEDRAVYYCSADGTWVRSPHFYYWGQGTQVTVSS | low polyreactivity
25 | QVQLVESGGGLVQAGGSLRLSCAASGRTFSRYAMGWYRQAPGKERELVAAITRSGGSTYYADSVKGRFTISRDNAKNTVYLQMNSLKPEDTAVYYCATERNLRNYDYWGQGTQVTVSS | high polyreactivity
26 | QVQLVESGGGLVQAGGSLRLSCAASGSIFESYAMGWYRQAPGKERELVAAITKRGGSTYYADSVKGRFTISRDNAKYTVYLQMNSLKPEDTAVYYCNARWPGIGPIYDYCGQGTQVTVSS | low polyreactivity
27 | QVQLVESGGGLVQAGGSLRLSCAASGSILDSNAMGWYRPAPGKERELVAAITSGGSTYYADSVKGRFTISRDNAKNTVYLQMNSLKPEDTAVYYCAAAYLGYGAVQPSYEGGYWGQGTQVTVSS | low polyreactivity
28 | QVQHVDSGGGLVQEGGSLRLICAASGSIFEQYTMGWYIQAPGKERELVAAISRRSGRTYYADSVKGRFTISRDNAKNTVYLQMNSLKPADTAVYYCAAQHAIYRNPGLDDYWGQGTQVTVSS | high polyreactivity
29 | QVQLVESGGGLVQAGGSLRLSCAASGSTFYLNAMGWYRQAPGKERELVAAINGSGGSTYADSVKGRFTISRDNAKNTVYLQMNSLKPEDTAVYYCAADGTGYPGYSYPGNDYDYWGQGTQVTVSS | low polyreactivity
30 | QVQLVESGGGLVQAGGSLRLSSAASGSIFAYYAMGWSRQAPGKEWELVAAITSGGNTKYADSVKGRFTISRDNAKNTVYLQMNCLKPEDTAVYYCASYRTRALWGQGYGYWGHGTQVTVSS | high polyreactivity
